From patent US20160279247A1, “CYCLIC PEPTIDE” (THE SECRETARY OF STATE FOR BUSINESS, INNOVATION & SKILLS OF …, published 2016)
Where no end group is shown, it is not given here.

Molecular target: T1, D2 peptide (C-terminal amide ('am'))
T1 peptide: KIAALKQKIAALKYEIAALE
Experiment: CD spectroscopy, thermal denaturation of the equimolar mixture (100 uM in each peptide)
Experimental: CD spectra were recorded on an Applied Photosystem Chirascan spectropolarimetre fitted with a Peltier temperature controller. All measurements were taken in ellipticities in mdeg and after baseline correction were converted to mean residue ellipticity (MRE; deg cm² dmol res⁻¹) by normalising for the concentration of peptide bonds and cuvette pathlength. Aqueous peptide solutions (300 μL, 100 μM in each peptide unless stated otherwise) were prepared in filtered (0.22 μm) 10 mM MOPS or phosphate buffer, pH 7.4. To calculate the percent α-helix, the equation, −100([q]₂₂₂+3000)/33 000), was used.
Thermal denaturation curves (solid lines) and their first derivatives (dashed lines) for SaNet (FIG. 8a), D1-D2 (FIGS. 8b) and D1 (FIG. 8c); and CD spectra following the thermal unfolding of D1-D2 (FIGS. 8d) and D1 (FIG. 8e); 10° C. (dotted line) and 90° C. (dashed line) with intervening spectra recorded every 10° C. (solid lines).

- transition midpoint of thermal unfolding of the D1+D2 mixture: ~55 ° C.
Binder: EIAALEQEIAALEYKIAALK-NH2 [D1 peptide]
